# Reference: patent US20070054846A1, “Bcl-w structure and uses therefor” (priority 2002, published 2007)
# B1: BimL: Bim isoform BimL, BH3-only protein (protein)
# chain: MAKQPSDVSSECDREGGQLQPAERPPQLRPGAPTSLQTEPQDRSPAPMSCDKSTQTPSPPCQAFNHYLSAMASIRQSQEEPEDLRPEIRIAQELRRIGDEFNETYTRRVFANDYREAEDHPQMVILQLLRFIFRLVWRRH
# modifications: left off: small tags and cut ends
# notes: Bim isoform BimL, BH3-only protein
# Assays:
# Format in all cases: binding
# full-length Bcl-xL [1] = molecular target: T1, full-length Bcl-xL (Homo sapiens, UniProt Q07817); assay: Co-immunoprecipitation from cell extracts; settings: FLAG-tagged full-length Bcl-xL
# T1 construct: FLAG-tagged full-length Bcl-xL or a C-terminally truncated mutant (ΔC24); expressed in transfected cells
# T1 sequence (Q07817 whole entry, species assumed, the tested form may be a part): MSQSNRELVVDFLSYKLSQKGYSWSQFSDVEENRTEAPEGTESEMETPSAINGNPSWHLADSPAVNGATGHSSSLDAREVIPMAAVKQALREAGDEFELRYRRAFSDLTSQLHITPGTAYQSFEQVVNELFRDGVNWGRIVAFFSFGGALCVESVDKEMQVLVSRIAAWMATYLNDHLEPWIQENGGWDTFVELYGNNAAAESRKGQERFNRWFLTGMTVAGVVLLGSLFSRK
# Excerpt: (§1) Bcl-xL and Bcl-2 also contain hydrophobic residues at their C-termini, similar to those found in Bcl-w (FIG. 1C), yet the low level of sequence identity following α8 and the absence of 3D-structural information, makes prediction of their conformation difficult. Since BCl-xL, like Bcl-w, is only partially membrane-bound in healthy cells (Hsu et al., 1997), we compared the ability of FLAG-tagged full-length Bcl-xL or a C-terminally truncated mutant (ΔC24) to bind to BimL or the […]L94A B3 mutant.
# Cell culture, stable transfections into FDC-P1, transient transfections into 293T human embryonic kidney cells, metabolic labelling with ^35S-methionine/cysteine (NEN) and co-immunoprecipitation have been previously described (O'Connor et al., 1998, Moriishi et al., 1999; Huang et al., 1998; Wilson-Annan et al., 2003). Briefly, mammalian pEF-based expression vectors for Bcl-w, BCl-xL, Bim, Bmf, Bad and Bik (O'Connor et al., 1998, Huang et al., 1998; Moriishi et al., 1999; Wilson-Annan et al., 2003) were transiently transfected using liposome mediated transfection (Lipofectamine™; Invitrogen). […] The immunoprecipitates were resolved by SDS-PAGE (Novex), transferred onto nitrocellulose membranes (APB) and the proteins detected by fluorography (Amplify; APB).
# full-length Bcl-xL [2] = molecular target: T1, full-length Bcl-xL; assay: GST pull-down
# Excerpt: as §1
# Direct interactions between Bcl-w and BimL were monitored using GST pull-down experiments. These were performed in 100 μl of PBS (phosphate buffered saline pH 7.3) containing 2 mM DTT. Typically excess soluble proteins were added to equivalent amounts of resin bound proteins. After incubation at room temperature for 30 minutes the resin was pelleted and then washed twice with 200 μl of PBS containing 0.2% Tween 20. After removal of the second wash 10 μl of SDS-PAGE sample buffer was added to each sample and the samples were boiled then loaded onto 16% polyacrylamide gels that were electrophoresed and stained with Coomassie Blue R250. The staining intensity of the bound soluble protein indicated the strength of the interaction between the two proteins.
# Bcl-xLΔC24 = molecular target: T2, Bcl-xLΔC24 (Homo sapiens, UniProt Q07817); assay: Co-immunoprecipitation / GST pull-down; settings: C-terminally truncated Bcl-xL (ΔC24)
# T2 construct: expressed in transfected cells
# T2 sequence (Q07817 1-209 limits assumed, stated change not applied): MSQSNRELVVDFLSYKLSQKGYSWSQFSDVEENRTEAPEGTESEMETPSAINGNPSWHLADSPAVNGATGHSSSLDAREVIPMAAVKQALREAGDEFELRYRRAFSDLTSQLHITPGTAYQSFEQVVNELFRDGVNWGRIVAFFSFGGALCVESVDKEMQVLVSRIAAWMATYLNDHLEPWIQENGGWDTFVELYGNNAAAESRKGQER
# Excerpt: as §1
# Direct interactions between Bcl-w and BimL were monitored using GST pull-down experiments. These were performed in 100 μl of PBS (phosphate buffered saline pH 7.3) containing 2 mM DTT. Typically excess soluble proteins were added to equivalent amounts of resin bound proteins. After incubation at room temperature for 30 minutes the resin was pelleted and then washed twice with 200 μl of PBS containing 0.2% Tween 20. […]
# Cell culture, stable transfections into FDC-P1, transient transfections into 293T human embryonic kidney cells, metabolic labelling with ^35S-methionine/cysteine (NEN) and co-immunoprecipitation have been previously described (O'Connor et al., 1998, Moriishi et al., 1999; Huang et al., 1998; Wilson-Annan et al., 2003). […] The immunoprecipitates were resolved by SDS-PAGE (Novex), transferred onto nitrocellulose membranes (APB) and the proteins detected by fluorography (Amplify; APB).
molecule,measurement,setting,value
B1,association in cell extracts,full-length Bcl-xL [1],associates only with wild-type BimL
same,association in GST pull-down,full-length Bcl-xL [2],more tightly with wild-type BimL
same,binding,Bcl-xLΔC24,bound wild-type BimL and the L94A mutant equally
